Test results published in the supplement of paper PMC6757056.
± gives the standard deviation of the averaged measurements.

B1: library; a variant is named by its letters at N, in order (parent)
chain: GCUGUCACCGGUGCUUGGUACGUUAUAUUCAGCCGGUCUGAUGAGUCUNNNNNNAGACGAAACAGC

What was measured:
[1] = variants of: B1; test: FACS-Seq fitted mean relative fluorescence mCherry/BFP without ligand (log10 relative fluorescence); HEK293T overexpressing SLC46A1; higher = higher reporter protein expression; conditions: without (6R,S)-folinic acid; ligand present: no
Procedure, shortened: (§1)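 To measure fluorescence, a normal distribution was fitted to read counts across sorted bins. The reporter libraries were HEK293T cells transduced by lentivirus with mCherry under ribozyme-switch control and an EF1α-BFP marker, enriched and then kept with or without ligand for 48 h. Sorting used 6 mCherry/BFP bins, and bin genomic DNA was PCR-amplified and sequenced on MiSeq. Fitted means of log10(mCherry/BFP) were scaled to five spiked-in control ribozymes.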

[2] = variants of: B1; test: normalized RNA/DNA level without ligand (relative to sTRSVctl = 100) (log10 (% of sTRSVctl)); HEK293T overexpressing SLC46A1; higher = less ribozyme self-cleavage, higher mRNA level; conditions: without (6R,S)-folinic acid; ligand present: no
Procedure, shortened: (§2)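 Library plasmids carrying ribozyme switches linked to mCherry, or to eGFP in some ligand experiments, were transfected into HEK293T at 4 µg per 6-well well, with any ligand added 1 h earlier. Seventy-two hours on, total RNA was extracted with EDTA and reverse-transcribed, amplified, barcoded and sequenced. RNA level was RNA over DNA reads normalized to a spiked-in non-cleaving sequence or to the top sequences, then scaled and log-transformed. The top set was 25 sequences, the transform was ×100 and log10, and sequences needed ≥100 DNA reads.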

[3] = variants of: B1; test: FACS-Seq fitted mean relative fluorescence mCherry/BFP with ligand (log10 relative fluorescence); HEK293T overexpressing SLC46A1; ligand concentration (+) FACS-Seq: 6 mM; higher = higher reporter protein expression; conditions: with (6R,S)-folinic acid; ligand present: yes
Procedure, shortened: as §1

[4] = variants of: B1; test: normalized RNA/DNA level with ligand (relative to sTRSVctl = 100) (log10 (% of sTRSVctl)); HEK293T overexpressing SLC46A1; ligand concentration (+) RNA-Seq: 6 mM; higher = less ribozyme self-cleavage, higher mRNA level; conditions: with (6R,S)-folinic acid; ligand present: yes
Procedure, shortened: as §2

Variant | FACS-Seq fitted mean (log10) [1] | normalized RNA/DNA level without ligand (log10) [2] | FACS-Seq fitted mean (log10) [3] | normalized RNA/DNA level with ligand (log10) [4]
GCUGUCACCGGUGCUUGGUACGUUAUAUUCAGCCGGUCUGAUGAGUCUUUUGAAAGACGAAACAGC | 0.0652 ± 0.029 | 1.918 ± 0.0086 | 0.135 ± 0.075 | 1.98 ± 0.042
GCUGUCACCGGUGCUUGGUACGUUAUAUUCAGCCGGUCUGAUGAGUCUGUUGAAAGACGAAACAGC | 0.184 ± 0.013 | 1.95 ± 0.01 | 0.741 ± 0.0086 | 2.01 ± 0.035
GCUGUCACCGGUGCUUGGUACGUUAUAUUCAGCCGGUCUGAUGAGUCUUUUCAGAGACGAAACAGC | 0.263 ± 0.0041 | 1.916 ± 0.013 | -0.0672 ± 0.0029 | 2.011 ± 0.02
GCUGUCACCGGUGCUUGGUACGUUAUAUUCAGCCGGUCUGAUGAGUCUGUUAGGAGACGAAACAGC | 0.206 ± 0.031 | 1.938 ± 0.0023 | 0.301 ± 0.51 | 2 ± 0.031
GCUGUCACCGGUGCUUGGUACGUUAUAUUCAGCCGGUCUGAUGAGUCUUUUCCGAGACGAAACAGC | 0.446 ± 0.012 | 1.918 ± 0.012 | 0.493 ± 0.15 | 1.99 ± 0.05
GCUGUCACCGGUGCUUGGUACGUUAUAUUCAGCCGGUCUGAUGAGUCUGUUCCAAGACGAAACAGC | 0.262 ± 0.14 | 2.0222 ± 0.00044 | 0.191 ± 0.16 | 2.03 ± 0.054
GCUGUCACCGGUGCUUGGUACGUUAUAUUCAGCCGGUCUGAUGAGUCUAUUCAGAGACGAAACAGC | 0.281 ± 0.045 | 1.962 ± 0.0047 | 0.431 ± 0.097 | 2.009 ± 0.018
GCUGUCACCGGUGCUUGGUACGUUAUAUUCAGCCGGUCUGAUGAGUCUGUUCUAAGACGAAACAGC | 0.333 ± 0.067 | 2.03 ± 0.0066 | 0.412 ± 0.031 | 2.035 ± 0.0031
GCUGUCACCGGUGCUUGGUACGUUAUAUUCAGCCGGUCUGAUGAGUCUAUUAGGAGACGAAACAGC | 0.125 ± 0.18 | 1.9 ± 0.023 | 0.123 ± 0.074 | 2.01 ± 0.028
GCUGUCACCGGUGCUUGGUACGUUAUAUUCAGCCGGUCUGAUGAGUCUAUUAGAAGACGAAACAGC | 0.0629 ± 0.005 | 1.965 ± 0.004 | -0.224 ± 0.063 | 2.01 ± 0.033
GCUGUCACCGGUGCUUGGUACGUUAUAUUCAGCCGGUCUGAUGAGUCUUUUCUGAGACGAAACAGC | 0.112 ± 0.063 | 1.92 ± 0.0064 | 0.197 ± 0.012 | 2 ± 0.061
GCUGUCACCGGUGCUUGGUACGUUAUAUUCAGCCGGUCUGAUGAGUCUCUUAUUAGACGAAACAGC | 0.473 ± 0.12 | 1.985 ± 0.0074 | 0.678 ± 0.072 | 2.01 ± 0.024
GCUGUCACCGGUGCUUGGUACGUUAUAUUCAGCCGGUCUGAUGAGUCUUUUAUGAGACGAAACAGC | 0.307 ± 0.0054 | 1.79 ± 0.024 | 0.315 ± 0.17 | 1.96 ± 0.041
GCUGUCACCGGUGCUUGGUACGUUAUAUUCAGCCGGUCUGAUGAGUCUGUUAUGAGACGAAACAGC | 0.244 ± 0.011 | 1.929 ± 0.0065 | 0.431 ± 0.16 | 1.99 ± 0.0045
GCUGUCACCGGUGCUUGGUACGUUAUAUUCAGCCGGUCUGAUGAGUCUGUUAUAAGACGAAACAGC | -0.102 ± 0.13 | 1.99 ± 0.031 | -0.0941 ± 0.099 | 2.012 ± 0.019
GCUGUCACCGGUGCUUGGUACGUUAUAUUCAGCCGGUCUGAUGAGUCUGUUCAAAGACGAAACAGC | 0.497 ± 0.083 | 1.98 ± 0.023 | 0.591 ± 0.17 | 1.98 ± 0.023
GCUGUCACCGGUGCUUGGUACGUUAUAUUCAGCCGGUCUGAUGAGUCUGUUCACAGACGAAACAGC | 0.0291 ± 0.011 | 2.041 ± 0.016 | -0.0744 ± 0.017 | 2.032 ± 0.014
GCUGUCACCGGUGCUUGGUACGUUAUAUUCAGCCGGUCUGAUGAGUCUGUUCGGAGACGAAACAGC | 0.155 ± 0.11 | 2.003 ± 0.0021 | 0.178 ± 0.021 | 1.985 ± 0.0024
GCUGUCACCGGUGCUUGGUACGUUAUAUUCAGCCGGUCUGAUGAGUCUGUUCGCAGACGAAACAGC | 0.511 ± 0.017 | 2.07 ± 0.024 | 0.368 ± 0.16 | 2.05 ± 0.025
GCUGUCACCGGUGCUUGGUACGUUAUAUUCAGCCGGUCUGAUGAGUCUAUUAUUAGACGAAACAGC | 0.191 ± 0.11 | 2.02 ± 0.023 | 0.497 ± 0.056 | 2.03 ± 0.024
GCUGUCACCGGUGCUUGGUACGUUAUAUUCAGCCGGUCUGAUGAGUCUAUUGAAAGACGAAACAGC | 0.561 ± 0.054 | 1.97 ± 0.01 | 0.718 ± 0.079 | 2 ± 0.014
